According to US20150239980A1 (NEOTOPE BOSCIENCES, published 2015):

T1: human MCAM (melanoma cell adhesion molecule) expressed on transfected CHO cells (human, UniProt P43121 24-646)
T1 construct: also called hMCAM; CD146
T1 chain: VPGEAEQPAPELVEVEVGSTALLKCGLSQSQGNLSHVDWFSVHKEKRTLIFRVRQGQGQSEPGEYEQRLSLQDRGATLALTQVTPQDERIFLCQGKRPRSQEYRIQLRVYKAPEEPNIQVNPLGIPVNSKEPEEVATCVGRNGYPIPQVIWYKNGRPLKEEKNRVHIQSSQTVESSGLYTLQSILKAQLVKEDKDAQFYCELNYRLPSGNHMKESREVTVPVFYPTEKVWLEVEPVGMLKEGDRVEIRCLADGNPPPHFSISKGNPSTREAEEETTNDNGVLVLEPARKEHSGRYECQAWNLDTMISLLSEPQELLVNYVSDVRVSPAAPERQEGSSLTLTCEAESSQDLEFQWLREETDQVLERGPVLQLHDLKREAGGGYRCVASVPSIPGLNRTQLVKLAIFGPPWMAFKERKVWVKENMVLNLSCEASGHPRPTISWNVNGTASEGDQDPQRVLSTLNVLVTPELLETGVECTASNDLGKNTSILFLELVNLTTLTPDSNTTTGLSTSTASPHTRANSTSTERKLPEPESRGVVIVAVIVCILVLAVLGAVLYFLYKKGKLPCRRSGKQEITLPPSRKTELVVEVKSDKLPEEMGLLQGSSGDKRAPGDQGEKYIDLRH

T2: human MCAM domain 2 (amino acids 139-242), Fc-tagged (human, UniProt P43121 139-242)
T2 sequence: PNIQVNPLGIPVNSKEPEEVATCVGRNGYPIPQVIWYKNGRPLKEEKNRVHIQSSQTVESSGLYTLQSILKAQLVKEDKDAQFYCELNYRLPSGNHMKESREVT

T3: human MCAM domain 3 (amino acids 244-321), Fc-tagged (human, UniProt P43121 244-321)
T3 construct: also called domain 3 of the human MCAM protein
T3 sequence: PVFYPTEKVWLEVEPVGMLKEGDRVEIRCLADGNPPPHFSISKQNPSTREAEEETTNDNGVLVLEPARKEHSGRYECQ

T4: human MCAM domain 1 (amino acids 19-129), Fc-tagged (human, UniProt P43121 19-129)
T4 construct: also called MCAM Fc domain 1
T4 sequence: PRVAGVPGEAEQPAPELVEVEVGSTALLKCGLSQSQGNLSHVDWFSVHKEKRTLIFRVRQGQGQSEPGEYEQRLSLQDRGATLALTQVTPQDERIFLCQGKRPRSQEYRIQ

T5: Recombinant human Fc-tagged MCAM IgG1-2A (human MCAM domains 1 and 2, amino acids 19-242) (human, UniProt P43121 19-242)
T5 construct: also called human MCAM IgG1-2A; MCAM Fc domains 1 and 2; not shown: human Fc tag
T5 sequence: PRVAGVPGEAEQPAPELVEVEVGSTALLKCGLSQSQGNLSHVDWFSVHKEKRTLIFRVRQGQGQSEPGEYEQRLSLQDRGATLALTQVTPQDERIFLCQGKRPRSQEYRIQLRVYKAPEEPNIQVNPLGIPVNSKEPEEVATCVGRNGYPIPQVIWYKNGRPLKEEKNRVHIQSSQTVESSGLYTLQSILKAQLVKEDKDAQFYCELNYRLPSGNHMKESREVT

T6: recombinant hMCAM-His (human, UniProt P43121 24-559)
T6 construct: not shown: His tag
T6 chain: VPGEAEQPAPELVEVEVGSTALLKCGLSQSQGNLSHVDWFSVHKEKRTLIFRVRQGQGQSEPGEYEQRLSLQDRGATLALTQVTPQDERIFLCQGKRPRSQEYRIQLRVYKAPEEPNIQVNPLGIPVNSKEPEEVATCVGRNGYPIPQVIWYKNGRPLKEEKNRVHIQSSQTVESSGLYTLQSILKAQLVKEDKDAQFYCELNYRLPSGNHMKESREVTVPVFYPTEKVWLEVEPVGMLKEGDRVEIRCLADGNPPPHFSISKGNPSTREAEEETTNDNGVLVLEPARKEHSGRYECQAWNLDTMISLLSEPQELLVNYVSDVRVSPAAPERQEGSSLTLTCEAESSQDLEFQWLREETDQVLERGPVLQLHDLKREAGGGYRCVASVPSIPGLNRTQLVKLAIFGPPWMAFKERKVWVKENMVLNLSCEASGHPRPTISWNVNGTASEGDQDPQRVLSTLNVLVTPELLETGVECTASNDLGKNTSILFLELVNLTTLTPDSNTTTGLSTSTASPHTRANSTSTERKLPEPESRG


Assays:
[1] = target: T1, human MCAM (melanoma cell adhesion …); test: flow cytometry, human MCAM CHO cells preincubated with antibody, competitor recombinant human laminin 411 at 20 ug/ml
Protocol: The 87 independent mouse fusion clones and 26 independent rat fusion clones described in Example 10 above as being capable of (i) binding to human MCAM, and (ii) blocking the interaction between human MCAM and the α-4 chain of laminin were further characterized as follows. First, IC50 quantitation for the ability of the monoclonal antibody to block the binding of human MCAM to the α-4 chain of laminin was determined as follows. CHO cells expressing human MCAM were incubated with an anti-human MCAM antibody (at various concentrations) for 30 minutes at 4 degrees Celsius. […] Unbound laminin was then washed away, and the laminin bound to the surface of the cells was detected with fluorescently labeled anti-laminin antibodies. After washing, the amount of laminin bound to the surface was detected by flow cytometry, and IC50s were calculated based on the mean fluorescent intensity.
These six anti-MCAM monoclonal antibody clones are herein referred to as (i) the mouse anti-human MCAM monoclonal clones 1174.1.3, 1414.1.2, 1415.1.1, and 1749.1.3, and (ii) the rat anti-human MCAM monoclonal antibody clones 2120.4.19 and 2107.4.10. […] As such, each of these specific monoclonal antibodies was very capable of binding to human MCAM and inhibiting the interaction of cell-expressed human MCAM with its α-4 laminin binding ligand.

[2] = target: T2, human MCAM domain 2 (amino acids …); test: ForteBio domain mapping as in Example 8
[3] = target: T3, human MCAM domain 3 (amino acids …); test: ForteBio domain mapping as in Example 8
[4] = target: T4, human MCAM domain 1 (amino acids …); test: ForteBio domain mapping as in Example 8
[5] = target: T5, Recombinant human Fc-tagged MCAM …; test: ForteBio domain mapping as in Example 8
[6] = target: T1, human MCAM (melanoma cell adhesion …); test: summary of laminin blocking assay on hMCAM CHO cells, competitor laminin 411; vs rodent 1749
Protocol: (§1) Following incubation for 30-45 minutes, the cells were washed and anti-laminin conjugated to AF650 (NovusBio) was added to detect the bound laminin. The cells were run on a flow cytometer to measure the laminin binding signal.

recombinant hMCAM-His [7] = target: T6, recombinant hMCAM-His; test: ForteBio Octet Red, hMCAM-His analyte; Forte column 1; vs rodent 1749
Protocol: (§2) The affinities were measured using the ForteBio Octet Red. Anti-human Fc sensors were used to capture the humanized antibodies, and several concentrations of hMCAMHis analyte were used to determine the affinity using a 1:1 fitting model.

recombinant hMCAM-His [8] = target: T6, recombinant hMCAM-His; test: summary of ForteBio and competitive ELISA on hMCAM-His; vs rodent 1749
Protocol: ELISA plates were coated with recombinant hMCAM-His, and blocked with casein buffer to prevent non-specific binding. Biotinylated rodent or chimeric antibody was added at a subsaturating concentration, in the presence or absence of 3× increasing concentrations of unlabeled competitor (humanized antibody, rodent, or chimeric). After washing to remove unbound antibody, streptavidin HRP was added to allow detection of the biotinylated antibody. The ELISA was developed with TMB substrate and the OD450 was measured. The IC50 of the unlabeled competitor was determined using the GraphPad Prism5 software.
as §2

[9] = target: T1, human MCAM (melanoma cell adhesion …); test: laminin/FACS on hMCAM CHO cells, competitor laminin 411; Expt#1; vs rodent 1749
Protocol: as §1

[10] = target: T1, human MCAM (melanoma cell adhesion …); test: laminin/FACS on hMCAM CHO cells, competitor laminin 411; Expt#2; vs rodent 1749
Protocol: as §1

recombinant hMCAM-His [11] = target: T6, recombinant hMCAM-His; test: competitive ELISA on hMCAM-His, competitor biotinylated rodent or chimeric 1749; vs rodent 1749

| IC50 [1] [µg/mL] | binding result [2] | binding result [3] | binding result [4] | binding result [5] | fold reduction in potency compared to the rodent [6] [fold] | fold over rodent (Forte affinity) (recombinant hMCAM-His [7]) [fold] | fold reduction in affinity compared to the rodent (recombinant hMCAM-His [8]) [fold] | fold over rodent (blocking, laminin/FACS) [9] [fold] | fold over rodent (blocking, laminin/FACS) [10] [fold] | fold over rodent (competitive ELISA) (recombinant hMCAM-His [11]) [fold] | Binder |
| --- | --- | --- | --- | --- | --- | --- | --- | --- | --- | --- | --- |
| 0.431 | no binding | binds | no binding | no binding | – | – | – | – | – | – | mouse anti-human MCAM monoclonal antibody clone 1414.1.2 (antibody, V domains shown, mouse hybridoma antibody) VH: EIQLQQTGPELVKPGASVKISCKASGYSFTDYIMLWVKQSHGKSLEWIGNINPYSGSSGYNLKFKGKATLTVDKSSSTAYMQLNSLTSEDSAVYYCARGKDFAMDYWGQGTSVTVSS VL: DIVMSQSPSSLAVSAGEKVTMSCKSSQSLLNSSTRKNFLAWYQQKPGQSPKLLIYWASTRESGVPDRFTGSGSGTDFTLTISSVQAEDLAVYYCKQSYNRYTFGGGTKLEIK |
| 0.469 | no binding | binds | no binding | no binding | – | – | – | – | – | – | mouse anti-human MCAM monoclonal antibody clone 1174.1.3 (antibody, V domains shown, mouse hybridoma antibody) VH: QIQLVQSGPELKKPGETVKISCKASGYTFTNYGMNWVKQAPGKGLKWMGWINTYTGEPTYADDFKGRFALSLETSASTAYLQINNLKNEDMATYFCARYRYNKYERAMDYWGQGTSVTVSS VL: DIVLTQSPASLAVSLGQRATISCRASKSVSTSGYSYMYWYQQKPGQPPKLLIYLASNLESGVPARFSGSGSGTDFTLNIHPVEEEDAATYYCQHSRELPFTFGSGTKLEIK |
| – | – | – | – | – | < 2 | 2.5 | < 2 | 1.1 | 1.2 | 1 | h1749VH1 + h1749VL2 (antibody, human IgG1, V domains shown) VH: EVQLVESGGGLVQPGGSLRLSCAASGFTFSSYIMSWVRQAPGKGLEWVATISSGGSSTYYPDSVKGRFTISRDNAKNSLYLQMNSLRAEDTAVYYCTRDDDYDVKVFAYWGQGTMVTVSS VL: DIVMTQSPDSLAVSLGERATINCKSSRSLLNSRIRKNYLAWYQQKPGQPPKLLIYWASTRESGVPDRFTGSGSGTDFTLTISSLQAEDVAVYYCKQSYNLLTFGQGTKVEIK |
| – | – | – | – | – | < 2 | 1.2 | < 2 | 1.5 | 1.8 | 1 | h1749VH2 + h1749VL1 (antibody, human IgG1, V domains shown, also called h1749VH2VL1) VH: EVQLVESGGGLVQPGGSLRLSCAASGFTFSSYIMSWVRQAPGKRLEWVATISSGGSSTYYPDSVKGRFTISRDNAKNSLYLQMNSLRAEDTAVYYCTRDDDYDVKVFAYWGQGTMVTVSS VL: DIVMTQSPDSLAVSLGERATINCKSSRSLLNSRIRKNYLAWYQQKPGQPPKLLIYWASTRESGVPDRFSGSGSGTDFTLTISSLQAEDVAVYYCKQSYNLLTFGQGTKVEIK |
| 0.307 | no binding | binds | no binding | no binding | – | – | – | – | – | – | mouse anti-human MCAM monoclonal antibody clone 1415.1.1 (antibody, V domains shown, mouse hybridoma antibody) VH: QVQLQQPGAELVQPGAPVKLSCKASGYIFTSYWMNWVKQRPGRGLEWIGRIDPSDSKIHYNQKFKDKATLTVDRSSSTAYIQLGSLTSEDSAVYYCAKEGGLRRGDYAMDYWGQGTSVTVSS VL: DIVMTQSPATLSVTPGDRVSLSCRASQSISDYLHWYQQKSHESPRLLIKYASQSISGIPSRFSGSGSGSDFTLSINSVEPEDVGVYYCQNGHNFPRTFGGGTKLEIK |
